From PMC11367152, “An aptamer‐guided fluorescence polarisation platform for extracellular vesicle liquid biopsy”

Biological target: HER2 on immobilised SKBR3 EVs (UniProt P04626 23-1255)
Test: fluorescence polarisation; SKBR3 EVs captured by anti-CD9/CD81; delta FP below LOD; FITC aptamer 5 nM, 1 h, room temperature, in antibody-captured EV wells; aptamers folded in PBS + 1.0 mM MgCl2 (CD63-BP, control) or PBS + 5.0 mM MgCl2 (HER2-HApt); pH not stated
Settings: protein: native; tags: none; label: 5'-FITC; folded single strand

B1: FITC-negative control aptamer (structured_DNA)
DNA: GCGCGAATGGGCGCGC
modifications: 3' inverted dT
B1: no binding.
